Measured values from article doi:10.1101/2025.06.14.659634 (bioRxiv, 2025).

Key:
[1] = molecular target: the molecule itself; test: glycerol density gradient centrifugation
cryo-EM structure = molecular target: the molecule itself; test: cryo-EM structure

B1: erlin1 with a C-terminal Flag tag, overexpressed alone (natural protein, human, UniProt O75477 1-348, looked up)
chain: MNMTQARVLVAAVVGLVAVLLYASIHKIEEGHLAVYYRGGALLTSPSGPGYHIMLPFITTFRSVQTTLQTDEVKNVPCGTSGGVMIYIDRIEVVNMLAPYAVFDIVRNYTADYDKTLIFNKIHHELNQFCSAHTLQEVYIELFDQIDENLKQALQKDLNLMAPGLTIQAVRVTKPKIPEAIRRNFELMEAEKTKLLIAAQKQKVVEKEAETERKKAVIEAEKIAQVAKIRFQQKVMEKETEKRISEIEDAAFLAREKAKADAEYYAAHKYATSNKHKLTPEYLELKKYQAIASNSKIYFGSNIPNMFVDSSCALKYSDIRTGRESSLPSKEALEPSGENVIQNKESTG
binding result [1]: binds

B2: erlin1 fused with a twin-Strep tag, co-expressed with erlin2 through a P2A sequence (natural protein, human, UniProt O75477 1-348, looked up)
chain: B1 chain
modifications: N108 glycosylated (seen in the density map); intramolecular disulfide bond C78-C130
binding result (cryo-EM structure): binds

B3: erlin2 with a C-terminal Flag tag, overexpressed alone (natural protein, human, UniProt O94905 1-339, looked up)
chain: MAQLGAVVAVASSFFCASLFSAVHKIEEGHIGVYYRGGALLTSTSGPGFHLMLPFITSYKSVQTTLQTDEVKNVPCGTSGGVMIYFDRIEVVNFLVPNAVYDIVKNYTADYDKALIFNKIHHELNQFCSVHTLQEVYIELFDQIDENLKLALQQDLTSMAPGLVIQAVRVTKPNIPEAIRRNYELMESEKTKLLIAAQKQKVVEKEAETERKKALIEAEKVAQVAEITYGQKVMEKETEKKISEIEDAAFLAREKAKADAECYTAMKIAEANKLKLTPEYLQLMKYKAIASNSKIYFGKDIPNMFMDSAGSVSKQFEGLADKLSFGLEDEPLETATKEN
binding result [1]: binds
